The source of these data is the nanobody polyreactivity screen of Harvey et al. (2022).

This series in a line: yeast display, Sf9 membrane polyspecificity reagent, FACS + sequencing; frameworks hold sequencing errors. The essentials:
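Nanobodies came from a synthetic yeast display library in Saccharomyces cerevisiae BJ5465, induced with galactose for 36–48 hours and stained for 1 hour at 4 °C with 10% biotinylated, detergent-solubilized Sf9 membrane reagent. Cells were enriched on streptavidin microbeads and then FACS-sorted, with low and high (top ~1%) gates set on anti-HA fluorescence for expression and streptavidin fluorescence for reagent binding. Each polyreactivity label reflects the gate a clone came from. Genes were amplified by colony PCR, sequenced by MiSeq 2 × 250 and filtered by CDR length.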
As for “QVQLVESGGGLVQAGGSLRLSCAASGTFPGNAMGWYRQSPGKERELVATITRGGRTYYADSVKGRFTISRDNAKHTVYLQMNSLKPEDTAVYYCNTRVYFGKIRGYDYWGQGTQVTVSS”, the “polyreactivity (PSR sort gate)” value is recorded as “high polyreactivity”.

On to “QVQLVESGGGLVQAAGSLRLSCAASGSTFYRNAMGWYRQAPGKERELVASINNGGSTYYADSVKGRFTISRDNAKNTVYLQMNSLKPEDTAVYYCAATESWDYDYWGQGTQVTVSS”, for which the “polyreactivity (PSR sort gate)” value is listed as “low polyreactivity”.

Take “QVQLVESGGGLVQAGGSLRLSCAASGRIFWFNSMGWYRQAPGKERELVAAIDSVGSTYYADSVKGRFTISRDNAKNTVYLQMNSLKPEDTAVYYCAKSTRPVSGVPDGPLYEYWGQGTQVTVSS”: the “polyreactivity (PSR sort gate)” value was “low polyreactivity”.

Consider “QVQLVESGGVLVQAGGSLRISCAASGIIFSYYAMGWYRQAPGKERELVAAIYRRGTSTYYADSVKGRFTISRDNAKNTVYLQMNSLKPEDTAVYYCNKSPYYTVWSTRCNQFSRFYYWGQGTQVTVSS”, for which the “polyreactivity (PSR sort gate)” value is on record as “high polyreactivity”.

Consider “QVQLVESGGGLVQAGGSLRLSCAASGRICKRNAMGWYRQAPGKERELVAAITWSGGSTYYADSVKGRFTISRDNAKNTVYLQMNSLKPEDTAVYYCAALRVQGDYDYWGQGTQVTVSS”, for which the “polyreactivity (PSR sort gate)” value is given as “high polyreactivity”.

For the sequence “QVQLVESGGGLVQAGGSLRLICAASGYTFGHYVMGWYRQAPGKERELGAAISRGGGSTSYADSVKGRFTISRDNAKNTVYLQMNSLKPEDTAVYYCAKKSTYFKWSRMYWGQGTQVTVSS”, the “polyreactivity (PSR sort gate)” value was “high polyreactivity”.

As for “QVQLVESGGGLVQAGGSLRLSCAASGLTIYYYAMGWYIQAPGKEREFVAAISWHGGSTYYADSVKGRFTISRDNAKNTVYLQMNSLKPEDTAVYYCAADIYLRGFHYDYWGLGTQVTVSS”, the “polyreactivity (PSR sort gate)” value is recorded as “low polyreactivity”.

Regarding “LVQLVESGGGLVQAGGSLRLSCAASGFIFAIYDMGWYRQAPGKERELVAAITSSSSTYADSVKGRFTISRDNAKNTVYLQMNSLKPEDTAVYYCAADTYSYRYSNDYWGQGTQVTVSS”, the “polyreactivity (PSR sort gate)” value is “low polyreactivity”.

On to “QVQLVESGGGLVQAGGSLSLSCAASGRIFDYYAMVWYRQAPGKERDLVAAISTSGGSTYYADSVKGRFTISRDNAKNTVYLQMISLKPVDTAVYYCAKDITVTYPGLDYDYWGQGTQVSVSS”, for which the “polyreactivity (PSR sort gate)” value is reported as “low polyreactivity”.

In the case of “QVQLVESGGGLVQAGGSLRLSCAASGRTFNQYAMGWYRQAPGKVRELVAAISRPTGRTYYADSVKGRFTISRDNAKNTVYLQMNSLKPEDTAVYYCAKADNRSPVDNGFDYWGQVTQVTVSS”, the “polyreactivity (PSR sort gate)” value is on record as “high polyreactivity”.

In the case of “QVQLVESGGGLVQAGGSLRLSCAASGSIFPPYAMGWYRQAPGKERELVATITIRGGSTYYADSVKGRFTISRDNAKNTVYLQMNSLKPEDTAVYYCAADYTKYYRRYYYWGQGTQVTVSS”, the “polyreactivity (PSR sort gate)” value is listed as “high polyreactivity”.

In the case of “QVQLVESGGGLVQAGGSLRLSFAASGSIFYRNAMGWYRQAPGKERELVASISASGGRTYYADSVKGRFTISRDNGKNTVYLQMNSVKPEDTAFYYCNKVSPVAYWYSWGINFDYWGQGTQVTVSS”, the “polyreactivity (PSR sort gate)” value is “high polyreactivity”.

For the sequence “QVQLVESGGGLVQAGGSLRLSCAASGRIFQYYAMGWYRQAPGKERELVAAISSRGGSTSYADSVKGRFTISRDKAKNTVYLQMNSLKPEDTAVYYCNAKSRISYWYDYWGQGTQVTVSS”, the “polyreactivity (PSR sort gate)” value is “high polyreactivity”.

On to “QVQLVESGGGLVQARGSLRLSFAASGGIFYSYAMGRYRQAPGKEREFVAAIRRSGGRTYYADSVKGRFTISRDNAKNTVYLQMNSLKPEDTAVYYCAADGWYSGGHDYWGQGTQVTVSS”, for which the “polyreactivity (PSR sort gate)” value is “high polyreactivity”.

Take “QVQLVESGGVLDQAGGSLRLICAASGITLFHYVMGWYRQAPGKEMELVAVISSSGGSTYYADSVKGRFTISRDNAKNTVYLQMNSLKPEDTAVYYCAAETDSRKARVLYDYWGQGTQVTVSS”: the “polyreactivity (PSR sort gate)” value was “high polyreactivity”.

Take “QVQLVESGGGLVQAGGSLRLSCAASGRTFWVYAMGRYRQAPGKEREFVAAISSNGDRTYYADSVKGRFTISRDNAKNTVYLQMNSLKPEDTAVYYCNSRKQYRYLADRMDYWGQGTQVTVSS”: the “polyreactivity (PSR sort gate)” value is “high polyreactivity”.

Take “QVHLVESGGGFFQAGGSLRLSCAASVITFPLYAMGWYRPAPGKERELVSAISRNGGRTYYADSVKGRFTISRDNAKNTVYLQMNSLKPEDTAVYYCAKVSRGSVSSPRDDYWGQGTQVNVSS”: the “polyreactivity (PSR sort gate)” value is reported as “high polyreactivity”.

As to “QVQLVESGGGLVQAGGSLRLSCAASGRIFKTNAMGWYRQAPGKERELVAGITSGGGTNYADSVKGRFTISRDNAKNTVYLQMNSLKPEDTAVYYCAKDRNFRHIKYSWGGYPYTMDYWGQGTQVTVSS”, the “polyreactivity (PSR sort gate)” value is reported as “low polyreactivity”.

For the sequence “QVQLVESGGGLVQAGGSLRLSCAASGRILSTYAMGWYRQAPGKERELVAVISWTGGRTYYADSVKGRFTISRYNAKNTVYLQMNSLKPEDTAVYYCNARPYYGGTRGRQYEYGYWGQGSQVTVSS”, the “polyreactivity (PSR sort gate)” value was “high polyreactivity”.

For “QVQLVESGGGLVQAGGSLSLSCAASGFTFYYYAMGWYRQAPGKERELVAAISTRDGNTYYADSVKGRFTISRDNAKNTVYLQMNSLKPEDTAVYYCAADYFRYYPYDYWGQGTQVTVSS”, the “polyreactivity (PSR sort gate)” value was “low polyreactivity”.

Turning to “QVQLVESGGGLVQAGGSLRLSCAASGFTFFWNAMGWSRQAPGKERELVAVITFRGGDTYYADSVKGRFTISRDNAKNTVYLQMNSLKPEDTAVYYCNADWQSYGYLWHSSLYYYWGQGTQVTVSS”, the “polyreactivity (PSR sort gate)” value is “low polyreactivity”.

As for “QVQLVESGGGLVQAGGSLRLSCAASGFIFSLYAMGWYRQAPGTERELVAAISKRGGSTNYADSVKGRFTISRDNAKNTVYLQMNSLKPEDTAVYYCAKARPGFLYDHWGQGTQVTVSS”, the “polyreactivity (PSR sort gate)” value was “high polyreactivity”.

Take “QVQLVESGGGLVQAGGSLRLSCAASGRTFARYAIGWSRQAPGKERELVAAITRRGGSTYYADSVKGRFTLSRDNAKNTVYLQMNSLKPEDTAVYYCAAHYPNFGIGAYEYWGQGTQVTVSS”: the “polyreactivity (PSR sort gate)” value is reported as “high polyreactivity”.

As to “QVQLVESGVGLVQAGGSLRISCAASGRIYRSNAMGWYRQAPGKERELLAAISSNGGSTYYADSVKGRFTISRDNAKNTVYLQMNSLKPEDTAVYYCAARVYYPVRYGYWGQGTQVSVSS”, the “polyreactivity (PSR sort gate)” value was “high polyreactivity”.

As for “QDQLVESGGCLVQAGGSLRLRCAASGRTFEAYAKGGYRQAPGKERELVASISSGGSTYYADSVNGRFTISRDNAKNTVYLQMNSLKPEDTAVYYCAAKRATRYYFAYYRARSERMNYWGQGTQVTVSS”, the “polyreactivity (PSR sort gate)” value is reported as “high polyreactivity”.

“QVQLVESGGGLVQAGGSLRLSCAASGSIFAGNAMGWYRQAPAKERELVAAISRRGGSTYYADSVKGRFTISRDNAKNTVYLQMNSLKPEDTAVSYCNALLRYAYHAAYGYWGQGTQVTVSS”: the “polyreactivity (PSR sort gate)” value was “high polyreactivity”.

Take “QVQLVESGGGLVQAGGSLRLSCAASGSISVYYAMGRYRQAPGKERELVASIRYTGGRTYYADSVKGRFTISRDNAKNTVYLQMNSLKPEDTAVYYCAADVKRDRVWGGDYWGHGTQVTVSS”: the “polyreactivity (PSR sort gate)” value is reported as “low polyreactivity”.

With “QVQLVESGGGLVQAGGSLRLSCAASGRIFTVYAMGWYRQAPGQERELVAAISRGGSTYADSVKGRFTISRDNAKISVYLQMNSLKPEDTAVYYCAAVNFRKGEDYWGQGTQVTVSS”, the “polyreactivity (PSR sort gate)” value is given as “high polyreactivity”.

As for “QVQLVESGGGLVQAGGSLRLSCAASGFIFAGYPMGWYRQAPGKERELVAGITRNGGSTYYADSVKGRFTISRDNAKNTVYLQMNSLKPEDPAVYYCAATRYSFGPRRVDYWGQGTQVTVSS”, the “polyreactivity (PSR sort gate)” value is given as “high polyreactivity”.

Turning to “QVQLVESGGGLVQAGGSLRLSCAASGSIFAYNAKGWYRPAPGKEREFVAVITRSDDSTYADSVKWRFTISRDNAKNTVYLQMNSLKPEDTSVYYCAAQPFVIDCGYRGDYWGQATQVTVSS”, the “polyreactivity (PSR sort gate)” value is on record as “low polyreactivity”.
